Results: patent US20150140002A1, “USE OF A PCSK9 INHIBITOR TO TREAT […]” (Sanofi, priority 2013, published 2015)
Several values for one entry are separate records, joined by “and”; a condition that tells them apart may be missing. Equal entries are not always repeated. Where two headings read alike, the source gives them in different places.

Legend:
[1] = system: patients with hypercholesterolemia at moderate cardiovascular (CV) risk; details: in vivo
Text: (§1) The clinical laboratory data consisted of urinalysis and blood analysis, hematology (RBC count, red blood cell distribution width (RDW), reticulocyte count, hemoglobin, hematocrit, platelets, WBC count with differential blood count), standard chemistry (glucose, sodium, potassium, chloride, bicarbonate, calcium, phosphorous, urea nitrogen, creatinine, uric acid, total protein, LDH, albumin, γ Glutamyl Transferase [γGT]), Hepatitis C antibody, liver panel (ALT, AST, ALP, and total bilirubin), and CPK.
(§2) Safety endpoints—Vital signs measurement: Vital signs included: HR, systolic and diastolic BP in sitting position.
(§3) The safety analysis included all randomized and treated patients. Safety data were analyzed by descriptive statistics.

[2] = system: patients with primary hypercholesterolemia (heFH and non-FH) who are intolerant to statins; details: in vivo
[3] = system: patients with hypercholesterolemia at moderate cardiovascular (CV) risk; experiment: Example 2: safety (TEAEs, laboratory parameters, vital signs); details: for Patients with any TEAE / Patients with any TEAE leading to death / Patients with any TEAE leading to treatment discontinuation / Patients with any treatment emergent SAE: Safety Population; for General disorders and administration site conditions / Injection site reaction / Muscle disorders / Musculoskeletal and connective tissue disorders / Musculoskeletal and connective tissue disorders NEC / Musculoskeletal pain / Myalgia / muscle spasms: TEAEs of interest; for Muscle-related AEs: discussion; for injection related AEs: disposable autoinjector
Text: as §1, §2, §3

[4] = Week 12, individual patient 6 who reported high blood glucose
[5] = Week 24, individual patients (arbitrary numbers 1-5) who reported high blood glucose

O=C1[C@H](CC[C@H](O)c2ccc(F)cc2)[C@@H](c2ccc(O)cc2)N1c1ccc(F)cc1 [ezetimibe, reference compound]
Influenza ([1]; human): 3 (5.9) n (%) | Cardiac disorders (SOC) ([2]; human): 6 (4.8%) patients (%) | Ear and labyrinth disorders (SOC) ([2]; human): 4 (3.2%) patients (%) | General allergic TEAEs (MedDRA SMQ Hypersensitivity) ([2]; human): 9 (7.3%) patients (%) | Investigations (SOC) ([2]; human): 7 (5.6%) patients (%) | Psychiatric disorders (SOC) ([2]; human): 5 (4.0%) patients (%) | Skeletal muscle-related TEAEs (CMQ preferred term) ([2]; human): 40 (32.3%) patients (%) | TEAEs ([2]; human): 100 (80.6%) patients (%) | Treatment-emergent SAEs ([2]; human): 10 (8.1%) patients (%) | Treatment-emergent injection site reactions (ISRs) ([2]; human): 6 (4.8%) patients (%) | Treatment-emergent neurocognitive disorders ([2]; human): 2 (1.6%) patients (%) | Treatment-emergent neurologic AEs ([2]; human): 4 (3.2%) patients (%) | Treatment-emergent skeletal muscle-related events resulting in early treatment discontinuation ([2]; human): 23 (18.5%) patients (%) | back pain ([2]; human): 5.6% | early termination due to musculoskeletal and connective tissues disorders SOC events ([2]; human): 26 [21.0%] patients [%] | fatigue ([2]; human): 3.2% | headache ([2]; human): 4.8% | insomnia ([2]; human): 2 (1.6%) reports (%) | muscle spasms ([2]; human): 7.3% | muscular weakness ([2]; human): 1.6% | non-cardiac chest pain (treatment-emergent SAE preferred term) ([2]; human): 4 (3.2%) patients (%) | palpitations ([2]; human): 2 (1.6%) reports (%) | paraesthesia ([2]; human): 0% | patients who prematurely discontinued study treatment due to a TEAE ([2]; human): 31 (25.0%) patients (%) | patients who prematurely terminated study treatment due to adverse events ([2]; human): 31 (24.8%) patients (%) | rate of AEs ([2]; human): 81% | vertigo ([2]; human): 2 (1.6%) reports (%) | Alanine aminotransferase (ALT) ≧3× ULN ([3]; Laboratory parameters): 0/51 | Alanine aminotransferase (ALT) ≧3× ULN (if baseline ALT <ULN) or ≧2× the baseline value (if baseline ALT ≧ULN) ([3]; Laboratory parameters): 0/51 | Albumin ≦25 g/L ([3]; Laboratory parameters): 0/50 | Aspartate aminotransferase >3× ULN ([3]; Laboratory parameters): 0/51 | Glucose ≦70 mg/dL (3.9 mmol/L) and <LLN ([3]; Laboratory parameters): 0/50 | Patients with any TEAE [3]: 40 (78.4) n (%) | Patients with any TEAE leading to death [3]: 0 n (%) | Patients with any TEAE leading to treatment discontinuation [3]: 4 (7.8) n (%) | Patients with any treatment emergent SAE [3]: 1 (2.0) n (%) | Arthralgia ([3]; TEAE): 2 (3.9) n (%) | Diarrhea ([3]; TEAE): 2 (3.9) n (%) | Dizziness ([3]; TEAE): 3 (5.9) n (%) | Headaches ([3]; TEAE): 2 (3.9) n (%) | Nasopharyngitis ([3]; TEAE): 8 (15.7) n (%) | Nausea ([3]; TEAE): 3 (5.9) n (%) | Upper respiratory tract infection ([3]; TEAE): 5 (9.8) n (%) | Urinary tract infection ([3]; TEAE): 3 (5.9) n (%) | back pain ([3]; TEAE): 3 (5.9) n (%) | General disorders and administration site conditions [3]: 5 (9.8) n (%) | Injection site reaction [3]: 2 (3.9) n (%) | Muscle disorders [3]: 2 (3.9) n (%) | Musculoskeletal and connective tissue disorders [3]: 11 (21.6) n (%) | Musculoskeletal and connective tissue disorders NEC [3]: 5 (9.8) n (%) | Musculoskeletal pain [3]: 1 (2.0) n (%) | Myalgia [3]: 1 (2.0) n (%) | muscle spasms [3]: 1 (2.0) n (%) | Muscle-related AEs [3]: 4% | injection related AEs [3]: < 4% | Muscle-related TEAEs ([3]; in vivo): 2 (4%) patients (%) | overall percentage of patients who experienced at least one TEAE ([3]; in vivo): 78% | patients with abnormalities in vital signs (blood pressure, heart rate) ([3]; in vivo): ≤ 2 patients | patients with blood glucose >126 mg/dL (7 mmol/L) ([3]; in vivo): 1 patients | patients with elevated creatine kinase levels over 10 times the upper limit of normal ([3]; in vivo): 1 patient | TEAE class infection ([3]; mostly respiratory): 39.2%

mAb316P: human anti-PCSK9 antibody; heavy chain SEQ ID NO:5, light chain SEQ ID NO:9; HCVR SEQ ID NO:1, LCVR SEQ ID NO:6
TEAE class infection [1]: 42.3% | Cardiac disorders (SOC) [2]: 10 (7.9%) patients (%) | Ear and labyrinth disorders (SOC) [2]: 8 (6.3%) patients (%) | General allergic TEAEs (MedDRA SMQ Hypersensitivity) [2]: 12 (9.5%) patients (%) | Investigations (SOC) [2]: 9 (7.1%) patients (%) | Psychiatric disorders (SOC) [2]: 9 (7.1%) patients (%) | Skeletal muscle-related TEAEs (CMQ preferred term) [2]: 34 (27.0%) patients (%) | TEAEs [2]: 104 (82.5%) patients (%) | Treatment-emergent SAEs [2]: 12 (9.5%) patients (%) | Treatment-emergent injection site reactions (ISRs) [2]: 6 (4.8%) patients (%) | Treatment-emergent neurocognitive disorders [2]: 3 (2.4%) patients (%) | Treatment-emergent neurologic AEs [2]: 11 (8.7%) patients (%) | Treatment-emergent skeletal muscle-related events resulting in early treatment discontinuation [2]: 19 (15.1%) patients (%) | back pain [2]: 4.0% | early termination due to musculoskeletal and connective tissues disorders SOC events [2]: 20 [15.9%] patients [%] | fatigue [2]: 4.8% | headache [2]: 4.8% | insomnia [2]: 5 (4.0%) reports (%) | muscle spasms [2]: 4.0% | muscular weakness [2]: 0.8% | palpitations [2]: 4 (3.2%) reports (%) | paraesthesia [2]: 3.2% | patients who prematurely discontinued study treatment due to a TEAE [2]: 23 (18.3%) patients (%) | patients who prematurely terminated study treatment due to adverse events [2]: 23 (18.3%) patients (%) | rate of AEs [2]: 82.5% | vertigo [2]: 6 (4.8%) reports (%) | safety and tolerability ([2]; sc): generally safe and well tolerated | Albumin ≦25 g/L ([3]; Laboratory parameters): 0/51 | Aspartate aminotransferase >3× ULN ([3]; Laboratory parameters): 0/52 | Creatine kinase >3× ULN ([3]; Laboratory parameters): 0/51 | Creatine kinase >10× ULN ([3]; Laboratory parameters): 0/51 | Glucose ≦70 mg/dL (3.9 mmol/L) and <LLN ([3]; Laboratory parameters): 0/52 | Patients with any TEAE [3]: 36 (69.2) n (%) | Patients with any TEAE leading to death [3]: 0 n (%) | Patients with any TEAE leading to treatment discontinuation [3]: 5 (9.6) n (%) | Patients with any treatment emergent SAE [3]: 1 (1.9) n (%) | Arthralgia ([3]; TEAE): 3 (5.8) n (%) | Diarrhea ([3]; TEAE): 6 (11.5) n (%) | Dizziness ([3]; TEAE): 1 (1.9) n (%) | Headaches ([3]; TEAE): 3 (5.8) n (%) | Influenza ([3]; TEAE): 6 (11.5) n (%) | Nasopharyngitis ([3]; TEAE): 12 (23.1) n (%) | Nausea ([3]; TEAE): 3 (5.8) n (%) | Upper respiratory tract infection ([3]; TEAE): 2 (3.8) n (%) | Urinary tract infection ([3]; TEAE): 0 n (%) | back pain ([3]; TEAE): 1 (1.9) n (%) | General disorders and administration site conditions [3]: 5 (9.6) n (%) | Injection site reaction [3]: 1 (1.9) n (%) | Muscle disorders [3]: 2 (3.8) n (%) | Musculoskeletal and connective tissue disorders [3]: 8 (15.4) n (%) | Musculoskeletal and connective tissue disorders NEC [3]: 2 (3.8) n (%) | Musculoskeletal pain [3]: 1 (1.9) n (%) | Myalgia [3]: 2 (3.8) n (%) | muscle spasms [3]: 0 n (%) | Fasting blood glucose [3, 4]: 135 mg/dL | HbA1c [3, 4]: 6.3% | Fasting blood glucose [3, 5]: 121 mg/dL and 112 mg/dL (2×) and 70 mg/dL and 183 mg/dL | HbA1c [3, 5]: 6.5% and 5.9% (2×) and 6.2% and 7.7% | Muscle-related AEs [3]: 4% | injection related AEs [3]: < 2% | Muscle-related TEAEs ([3]; in vivo): 2 (4%) patients (%) | overall percentage of patients who experienced at least one TEAE ([3]; in vivo): 69% | patients with abnormalities in vital signs (blood pressure, heart rate) ([3]; in vivo): no patients | patients with blood glucose >126 mg/dL (7 mmol/L) ([3]; in vivo): 6 patients | patients who experienced at least 1 LDL-C value<25 mg/dL ([3]; mAb316P 75 mg Q2W): Three | tolerability and safety ([3]; overall conclusion): tolerability and safety comparable with ezetimibe
